Results on seven sequences are retold here after the supplement of paper PMC5998384.

Data set [1] deals with HeLa Kyoto. Nature of the data set: solubility in G1/S (NP-40 vs SDS abundance) (log2 ratio); higher = more soluble. To be noted: cell cycle stage: G1/S.
In data set [2] the test system is HeLa Kyoto. The experiment in a line: solubility change mitosis vs G1/S (difference of NP-40 vs SDS log2 ratios) (log2 ratio difference); higher = more soluble in mitosis.
Data set [3] concerns HeLa Kyoto. Nature of the data set: melting temperature (median over replicates), in situ; higher = more thermally stable.
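Throughout, for melting temperature (median over replicates), in situ: HeLa Kyoto cells synchronized by double thymidine or nocodazole block, proteins quantified by TMT10plex mass spectrometry, three independent biological replicates.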
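Throughout, for solubility change mitosis vs G1/S (difference of NP-40 vs SDS log2 ratios): synchronized HeLa Kyoto cells (double thymidine block for G1/S, nocodazole release for mitosis), protein amounts in NP-40 versus SDS lysates quantified by mass spectrometry, three biological replicates.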
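Throughout, for solubility in G1/S (NP-40 vs SDS abundance): HeLa Kyoto cells arrested at G1/S by double thymidine block, proteins quantified by TMT10plex mass spectrometry in mild NP-40 versus SDS extracts, three biological replicates.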

With “MPKTMHFLFRFIVFFYLWGLFTAQRQKKEESTEEVKIEVLHRPENCSKTSKKGDLLNAHYDGYLAKDGSKFYCSRTQNEGHPKWFVLGVGQVIKGLDIAMTDMCPGEKRKVVIPPSFAYGKEGYAEGKIPPDATLIFEIELYAVTKGPRSIETFKQIDMDNDRQLSKAEINLYLQREFEKDEKPRDKSYQDAVLEDIFKKNDHDGDGFISPKEYNVYQHDEL [FKBP7]”, the “solubility in G1/S (log2)” value in data set [1] amounted to 0.654. Moreover, the “solubility change mitosis (log2)” value in data set [2] is 0.0889. The melting temperature amounted to 55 °C in data set [3] (cell cycle stage: G1/S) and 55.8 °C in data set [3] (cell cycle stage: mitosis).
For “MPVTVTRTTITTTTTSSSGLGSPMIVGSPRALTQPLGLLRLLQLVSTCVAFSLVASVGAWTGSMGNWSMFTWCFCFSVTLIILIVELCGLQARFPLSWRNFPITFACYAALFCLSASIIYPTTYVQFLSHGRSRDHAIAATFFSCIACVAYATEVAWTRARPGEITGYMATVPGLLKVLETFVACIIFAFISDPNLYQHQPALEWCVAVYAICFILAAIAILLNLGECTNVLPIPFPSFLSGLALLSVLLYATALVLWPLYQFDEKYGGQPRRSRDVSCSRSHAYYVCAWDRRLAVAILTAINLLAYVADLVHSAHLVFVKV [MYADM]” the same measures were -0.352, -0.0179, 52.9 °C and 53 °C.
Regarding “MQAALEVTARYCGRELEQYGQCVAAKPESWQRDCHYLKMSIAQCTSSHPIIRQIRQACAQPFEAFEECLRQNEAAVGNCAEHMRRFLQCAEQVQPPRSPATVEAQPLPAS [CHCHD5]”, the “solubility in G1/S (log2)” value in data set [1] was -0.11. Besides, in data set [2], the “solubility change mitosis (log2)” value turned out to be 0.0671. Also, the melting temperature amounted to 53.5 °C in data set [3] (cell cycle stage: G1/S) and 50.5 °C in data set [3] (cell cycle stage: mitosis).
Regarding “MQSPAVLVTSRRLQNAHTGLDLTVPQHQEVRGKMMSGHVEYQILVVTRLAAFKSAKHRPEDVVQFLVSKKYSEIEEFYQKLSSRYAAASLPPLPRKVLFVGESDIRERRAVFNEILRCVSKDAELAGSPELLEFLGTRSPGAAGLTSRDSSVLDGTDSQTGNDEEAFDFFEEQDQVAEEGPPVQSLKGEDAEESLEEEEALDPLGIMRSKKPKKHPKVAVKAKPSPRLTIFDEEVDPDEGLFGPGRKLSPQDPSEDVSSVDPLKLFDDPDLGGAIPLGDSLLLPAACESGGPTPSLSHRDASKELFRVEEDLDQILNLGAEPKPKPQLKPKPPVAAKPVIPRKPAVPPKAGPAEAVAGQQKPQEQIQAMDEMDILQYIQDHDTPAQAAPSLF [HS1BP3]”, the “solubility in G1/S (log2)” value in data set [1] was determined as 0.292. Moreover, the “solubility change mitosis (log2)” value in data set [2] was determined as 0.119. Further, the melting temperature in data set [3] (cell cycle stage: G1/S) was determined as 49.7 °C; in data set [3] (cell cycle stage: mitosis), 50.5 °C.
As to “MRASLLLSVLRPAGPVAVGISLGFTLSLLSVTWVEEPCGPGPPQPGDSELPPRGNTNAARRPNSVQPGAEREKPGAGEGAGENWEPRVLPYHPAQPGQAAKKAVRTRYISTELGIRQRLLVAVLTSQTTLPTLGVAVNRTLGHRLERVVFLTGARGRRAPPGMAVVTLGEERPIGHLHLALRHLLEQHGDDFDWFFLVPDTTYTEAHGLARLTGHLSLASAAHLYLGRPQDFIGGEPTPGRYCHGGFGVLLSRMLLQQLRPHLEGCRNDIVSARPDEWLGRCILDATGVGCTGDHEGVHYSHLELSPGEPVQEGDPHFRSALTAHPVRDPVHMYQLHKAFARAELERTYQEIQELQWEIQNTSHLAVDGDQAAAWPVGIPAPSRPASRFEVLRWDYFTEQHAFSCADGSPRCPLRGADRADVADVLGTALEELNRRYHPALRLQKQQLVNGYRRFDPARGMEYTLDLQLEALTPQGGRRPLTRRVQLLRPLSRVEILPVPYVTEASRLTVLLPLAAAERDLAPGFLEAFATAALEPGDAAAALTLLLLYEPRQAQRVAHADVFAPVKAHVAELERRFPGARVPWLSVQTAAPSPLRLMDLLSKKHPLDTLFLLAGPDTVLTPDFLNRCRMHAISGWQAFFPMHFQAFHPAVAPPQGPGPPELGRDTGRFDRQAASEACFYNSDYVAARGRLAAASEQEEELLESLDVYELFLHFSSLHVLRAVEPALLQRYRAQTCSARLSEDLYHRCLQSVLEGLGSRTQLAMLLFEQEQGNST [CHPF]”, in data set [1], the “solubility in G1/S (log2)” value was -0.013. Moreover, in data set [2], the “solubility change mitosis (log2)” value turned out to be 0.15. The melting temperature is 53.4 °C in data set [3] (cell cycle stage: G1/S) and 52 °C in data set [3] (cell cycle stage: mitosis).
Turning to “MRDNTSPISVILVSSGSRGNKLLFRYPFQRSQEHPASQTSKPRSRYAASNTGDHADEQDGDSRFSDVILATILATKSEMCGQKFELKIDNVRFVGHPTLLQHALGQISKTDPSPKREAPTMILFNVVFALRANADPSVINCLHNLSRRIATVLQHEERRCQYLTREAKLILALQDEVSAMADGNEGPQSPFHHILPKCKLARDLKEAYDSLCTSGVVRLHINSWLEVSFCLPHKIHYAASSLIPPEAIERSLKAIRPYHALLLLSDEKSLLGELPIDCSPALVRVIKTTSAVKNLQQLAQDADLALLQVFQLAAHLVYWGKAIIIYPLCENNVYMLSPNASVCLYSPLAEQFSHQFPSHDLPSVLAKFSLPVSLSEFRNPLAPAVQETQLIQMVVWMLQRRLLIQLHTYVCLMASPSEEEPRPREDDVPFTARVGGRSLSTPNALSFGSPTSSDDMTLTSPSMDNSSAELLPSGDSPLNQRMTENLLASLSEHERAAILSVPAAQNPEDLRMFARLLHYFRGRHHLEEIMYNENTRRSQLLMLFDKFRSVLVVTTHEDPVIAVFQALLP [NPRL3]”, the “solubility in G1/S (log2)” value in data set [1] was -0.108. Further, the “solubility change mitosis (log2)” value in data set [2] worked out at 0.129. For the same sequence, the melting temperature in data set [3] (cell cycle stage: G1/S) was 50.8 °C; in data set [3] (cell cycle stage: mitosis) it was 52.5 °C.
As to “MRGAGPSPRQSPRTLRPDPGPAMSFFRRKVKGKEQEKTSDVKSIKASISVHSPQKSTKNHALLEAAGPSHVAINAISANMDSFSSSRTATLKKQPSHMEAAHFGDLGRSCLDYQTQETKSSLSKTLEQVLHDTIVLPYFIQFMELRRMEHLVKFWLEAESFHSTTWSRIRAHSLNTVKQSSLAEPVSPSKKHETTASFLTDSLDKRLEDSGSAQLFMTHSEGIDLNNRTNSTQNHLLLSQECDSAHSLRLEMARAGTHQVSMETQESSSTLTVASRNSPASPLKELSGKLMKSIEQDAVNTFTKYISPDAAKPIPITEAMRNDIIARICGEDGQVDPNCFVLAQSIVFSAMEQEHFSEFLRSHHFCKYQIEVLTSGTVYLADILFCESALFYFSEYMEKEDAVNILQFWLAADNFQSQLAAKKGQYDGQEAQNDAMILYDKYFSLQATHPLGFDDVVRLEIESNICREGGPLPNCFTTPLRQAWTTMEKVFLPGFLSSNLYYKYLNDLIHSVRGDEFLGGNVSLTAPGSVGPPDESHPGSSDSSASQSSVKKASIKILKNFDEAIIVDAASLDPESLYQRTYAGKMTFGRVSDLGQFIRESEPEPDVRKSKGSMFSQAMKKWVQGNTDEAQEELAWKIAKMIVSDIMQQAQYDQPLEKSTKL [AKAP10]”, the “solubility in G1/S (log2)” value in data set [1] turned out to be 0.00407. The “solubility change mitosis (log2)” value in data set [2] was -0.166. Also, in data set [3] (cell cycle stage: mitosis), the melting temperature turned out to be 49.8 °C.
